Tests used:
Test in all cases: cell-based or functional assay
[1] = target: IRAK1(h) (human) (UniProt P51617)
[2] = target: GRK7(h) (human) (UniProt Q8WTQ7)
[3] = target: Src(1-530)(h) (human) (UniProt P12931)
[4] = target: EGFR(L858R)(h) (human) (UniProt P00533)
[5] = target: HIPK3(h) (human) (UniProt Q9H422)
[6] = target: EphA8(h) (human) (UniProt P29322)
[7] = target: CDK9/cyclin T1(h) (human) (UniProt P50750)
[8] = target: c-RAF(h) (human) (UniProt P04049)
[9] = target: Lck(h) activated (human) (UniProt P06239)
[10] = target: PKCζ(h) (human) (UniProt Q05513)
[11] = target: MSK1(h) (human) (UniProt O75582)
Chain of MSK1(h) (human) (O75582 whole entry): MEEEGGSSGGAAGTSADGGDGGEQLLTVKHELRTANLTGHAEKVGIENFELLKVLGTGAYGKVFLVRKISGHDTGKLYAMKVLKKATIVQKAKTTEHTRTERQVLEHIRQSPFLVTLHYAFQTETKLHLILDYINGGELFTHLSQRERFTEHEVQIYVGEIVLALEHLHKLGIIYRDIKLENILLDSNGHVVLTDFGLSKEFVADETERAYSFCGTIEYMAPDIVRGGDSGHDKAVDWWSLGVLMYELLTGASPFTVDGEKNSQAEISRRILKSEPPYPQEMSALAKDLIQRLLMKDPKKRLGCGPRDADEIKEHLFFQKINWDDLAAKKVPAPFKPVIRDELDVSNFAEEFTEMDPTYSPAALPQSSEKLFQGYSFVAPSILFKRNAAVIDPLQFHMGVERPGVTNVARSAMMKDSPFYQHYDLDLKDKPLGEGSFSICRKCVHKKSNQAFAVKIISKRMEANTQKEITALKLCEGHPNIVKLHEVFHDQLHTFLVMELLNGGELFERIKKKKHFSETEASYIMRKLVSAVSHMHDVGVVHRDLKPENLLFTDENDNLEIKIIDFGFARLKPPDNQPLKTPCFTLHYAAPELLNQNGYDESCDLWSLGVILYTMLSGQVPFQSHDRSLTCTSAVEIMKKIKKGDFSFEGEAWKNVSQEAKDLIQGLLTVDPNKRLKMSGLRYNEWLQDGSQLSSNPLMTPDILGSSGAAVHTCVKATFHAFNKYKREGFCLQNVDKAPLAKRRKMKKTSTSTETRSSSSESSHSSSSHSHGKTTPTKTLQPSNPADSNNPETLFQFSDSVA

[12] = target: JAK2(h) (human) (UniProt O60674)
[13] = target: ALK4(h) (human) (UniProt P36896)
[14] = target: Ret(h) (human) (UniProt P07949)
[15] = target: EGFR(T790M)(h) (human) (UniProt P00533)
[16] = target: WNK2(h) (human) (UniProt Q9Y3S1)
[17] = target: SGK3(h) (human) (UniProt Q96BR1)
[18] = target: SAPK3(h) (human) (UniProt P53778)
[19] = target: CLK3(h) (human) (UniProt P49761)
[20] = target: PKCµ(h) (human) (UniProt Q15139)
[21] = target: STK33(h) (human) (UniProt Q9BYT3)
[22] = target: MINK(h) (human) (UniProt Q8N4C8)
[23] = target: Met(D1246H)(h) (human) (UniProt P08581)
[24] = target: Haspin(h) (human) (UniProt Q8TF76)
Chain of Haspin(h) (human) (Q8TF76 471-798 limits assumed): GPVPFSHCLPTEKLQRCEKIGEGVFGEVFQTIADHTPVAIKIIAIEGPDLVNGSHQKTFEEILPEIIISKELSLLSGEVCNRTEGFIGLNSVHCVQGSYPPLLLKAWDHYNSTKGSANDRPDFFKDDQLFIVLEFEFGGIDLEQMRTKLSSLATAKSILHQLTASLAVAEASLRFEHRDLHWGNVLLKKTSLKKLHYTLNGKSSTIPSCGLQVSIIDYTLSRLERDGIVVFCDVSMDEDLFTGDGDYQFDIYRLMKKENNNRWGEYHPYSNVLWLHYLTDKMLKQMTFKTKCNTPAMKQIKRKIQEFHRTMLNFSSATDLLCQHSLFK

[25] = target: AMPKa2(h) (human) (UniProt P54646)
Chain of AMPKa2(h) (human) (P54646 whole entry): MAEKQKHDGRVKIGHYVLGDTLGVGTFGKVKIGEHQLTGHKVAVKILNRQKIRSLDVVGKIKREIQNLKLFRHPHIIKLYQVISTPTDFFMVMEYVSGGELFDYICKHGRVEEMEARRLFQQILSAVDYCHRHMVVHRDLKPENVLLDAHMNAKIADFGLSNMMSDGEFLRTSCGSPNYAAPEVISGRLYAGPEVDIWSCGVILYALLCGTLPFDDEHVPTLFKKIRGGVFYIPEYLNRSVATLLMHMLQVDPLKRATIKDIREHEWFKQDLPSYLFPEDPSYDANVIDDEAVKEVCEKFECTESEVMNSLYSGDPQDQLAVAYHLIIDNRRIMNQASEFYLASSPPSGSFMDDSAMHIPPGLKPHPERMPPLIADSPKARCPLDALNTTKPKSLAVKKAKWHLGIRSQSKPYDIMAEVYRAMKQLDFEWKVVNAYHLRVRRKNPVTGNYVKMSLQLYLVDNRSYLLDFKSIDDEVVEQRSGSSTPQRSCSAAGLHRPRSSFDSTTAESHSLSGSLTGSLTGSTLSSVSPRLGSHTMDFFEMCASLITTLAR

[26] = target: Hck(h) (human) (UniProt P08631)
[27] = target: CDK7/cyclinH/MAT1(h) (human) (UniProt P50613)
Chain of CDK7/cyclinH/MAT1(h) (human) (P50613 whole entry, chain 1 of 3): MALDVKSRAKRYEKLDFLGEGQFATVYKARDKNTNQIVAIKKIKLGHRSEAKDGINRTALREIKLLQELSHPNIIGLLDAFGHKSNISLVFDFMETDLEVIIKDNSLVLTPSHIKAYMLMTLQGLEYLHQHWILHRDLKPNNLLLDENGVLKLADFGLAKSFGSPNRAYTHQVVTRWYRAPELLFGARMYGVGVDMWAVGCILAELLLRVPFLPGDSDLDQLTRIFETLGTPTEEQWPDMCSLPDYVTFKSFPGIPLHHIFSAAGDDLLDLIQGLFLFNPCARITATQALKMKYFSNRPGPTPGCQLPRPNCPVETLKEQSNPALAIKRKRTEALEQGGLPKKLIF
Chain of CDK7/cyclinH/MAT1(h) (human) (P51946 whole entry, chain 2 of 3, further chain): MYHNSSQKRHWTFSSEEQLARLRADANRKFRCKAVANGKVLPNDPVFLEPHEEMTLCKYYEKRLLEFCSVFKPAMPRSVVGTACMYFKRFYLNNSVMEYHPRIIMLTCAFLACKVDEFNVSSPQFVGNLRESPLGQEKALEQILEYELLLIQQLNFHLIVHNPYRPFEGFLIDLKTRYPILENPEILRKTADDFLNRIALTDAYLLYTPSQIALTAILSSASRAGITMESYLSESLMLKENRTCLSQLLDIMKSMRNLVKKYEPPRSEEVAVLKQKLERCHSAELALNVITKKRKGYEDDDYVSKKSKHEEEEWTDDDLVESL
Chain of CDK7/cyclinH/MAT1(h) (human) (P51948 whole entry, chain 3 of 3, further chain): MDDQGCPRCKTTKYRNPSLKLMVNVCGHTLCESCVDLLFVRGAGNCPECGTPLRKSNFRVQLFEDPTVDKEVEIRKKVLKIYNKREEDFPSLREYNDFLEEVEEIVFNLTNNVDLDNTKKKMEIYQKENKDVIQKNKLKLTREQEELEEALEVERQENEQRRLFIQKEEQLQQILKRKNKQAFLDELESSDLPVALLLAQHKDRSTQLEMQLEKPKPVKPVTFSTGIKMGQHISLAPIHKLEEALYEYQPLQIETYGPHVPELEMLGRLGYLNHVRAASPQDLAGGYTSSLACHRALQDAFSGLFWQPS

[28] = target: SIK(h) (human) (UniProt P57059)
[29] = target: ROCK-I(h) (human) (UniProt Q13464)
[30] = target: CHK1(h) (human) (UniProt O14757)
[31] = target: KDR(h) (human) (UniProt P35968)
[32] = target: PKCγ(h) (human) (UniProt P05129)
[33] = target: PDK1(h) (human) (UniProt O15530)
[34] = target: Txk(h) (human) (UniProt P42681)
[35] = target: VRK2(h) (human) (UniProt Q86Y07)
[36] = target: Aurora-B(h) (human) (UniProt Q96GD4)
[37] = target: Met(Y1248C)(h) (human) (UniProt P08581)
[38] = target: RIPK2(h) (human) (UniProt O43353)
[39] = target: JNK2α2(h) (human) (UniProt P45984)
[40] = target: EGFR(h) (human) (UniProt P00533)
[41] = target: EphB3(h) (human) (UniProt P54753)
[42] = target: ALK(h) (human) (UniProt Q9UM73)
[43] = target: PDGFRα(V561D)(h) (human) (UniProt P16234)
Chain of PDGFRα(V561D)(h) (human) (P16234 550-1089 V561D limits assumed): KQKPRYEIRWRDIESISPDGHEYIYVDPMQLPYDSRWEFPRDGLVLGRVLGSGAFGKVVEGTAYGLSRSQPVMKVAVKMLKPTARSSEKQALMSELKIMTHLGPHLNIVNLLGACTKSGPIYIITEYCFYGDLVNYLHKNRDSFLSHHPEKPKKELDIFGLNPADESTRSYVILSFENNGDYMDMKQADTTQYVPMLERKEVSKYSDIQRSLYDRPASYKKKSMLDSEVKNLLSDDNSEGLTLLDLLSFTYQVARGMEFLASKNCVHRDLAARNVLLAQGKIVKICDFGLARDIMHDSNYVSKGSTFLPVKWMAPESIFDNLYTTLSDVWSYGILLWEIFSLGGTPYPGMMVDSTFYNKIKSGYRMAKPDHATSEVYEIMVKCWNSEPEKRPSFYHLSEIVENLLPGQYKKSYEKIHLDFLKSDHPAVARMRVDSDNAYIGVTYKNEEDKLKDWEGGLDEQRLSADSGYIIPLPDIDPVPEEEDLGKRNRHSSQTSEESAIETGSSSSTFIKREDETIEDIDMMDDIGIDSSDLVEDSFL

[44] = target: LOK(h) (human) (UniProt O94804)
[45] = target: BTK(h) (human) (UniProt Q06187)
Chain of BTK(h) (human) (Q06187 whole entry): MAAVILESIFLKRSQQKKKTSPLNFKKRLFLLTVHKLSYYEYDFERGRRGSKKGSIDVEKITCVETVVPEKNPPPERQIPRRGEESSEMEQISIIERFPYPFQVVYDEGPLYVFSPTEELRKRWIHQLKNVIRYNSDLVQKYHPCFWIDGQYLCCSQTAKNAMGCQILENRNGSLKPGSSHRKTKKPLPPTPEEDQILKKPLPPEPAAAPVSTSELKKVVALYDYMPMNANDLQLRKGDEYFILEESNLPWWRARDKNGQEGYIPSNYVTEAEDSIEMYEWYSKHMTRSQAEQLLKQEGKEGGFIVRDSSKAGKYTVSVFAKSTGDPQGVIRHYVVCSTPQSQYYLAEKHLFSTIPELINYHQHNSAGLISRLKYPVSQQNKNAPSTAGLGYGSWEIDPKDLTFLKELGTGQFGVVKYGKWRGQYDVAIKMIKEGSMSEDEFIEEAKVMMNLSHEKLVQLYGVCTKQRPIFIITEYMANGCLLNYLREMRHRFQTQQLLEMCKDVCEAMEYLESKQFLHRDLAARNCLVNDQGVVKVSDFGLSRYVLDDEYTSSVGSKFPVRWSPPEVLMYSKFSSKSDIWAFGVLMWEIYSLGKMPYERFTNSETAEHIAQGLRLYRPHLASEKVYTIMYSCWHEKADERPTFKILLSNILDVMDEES

[46] = target: TBK1(h) (human) (UniProt Q9UHD2)
[47] = target: SAPK2a(h) (human) (UniProt Q16539)
[48] = target: CDK5/p25(h) (human) (UniProt Q00535)
[49] = target: PKCε(h) (human) (UniProt Q02156)
[50] = target: FGFR4(h) (human) (UniProt P22455)
[51] = target: Tie2(h) (human) (UniProt Q02763)
[52] = target: Ret(V804M)(h) (human) (UniProt P07949)
[53] = target: IRAK4(h) (human) (UniProt Q9NWZ3)
[54] = target: PKCθ(h) (human) (UniProt Q04759)
[55] = target: DAPK2(h) (human) (UniProt Q9UIK4)
[56] = target: Met(M1268T)(h) (human) (UniProt P08581)

Chain of CDK9/cyclin T1(h) (human) (P50750 whole entry, chain 1 of 2): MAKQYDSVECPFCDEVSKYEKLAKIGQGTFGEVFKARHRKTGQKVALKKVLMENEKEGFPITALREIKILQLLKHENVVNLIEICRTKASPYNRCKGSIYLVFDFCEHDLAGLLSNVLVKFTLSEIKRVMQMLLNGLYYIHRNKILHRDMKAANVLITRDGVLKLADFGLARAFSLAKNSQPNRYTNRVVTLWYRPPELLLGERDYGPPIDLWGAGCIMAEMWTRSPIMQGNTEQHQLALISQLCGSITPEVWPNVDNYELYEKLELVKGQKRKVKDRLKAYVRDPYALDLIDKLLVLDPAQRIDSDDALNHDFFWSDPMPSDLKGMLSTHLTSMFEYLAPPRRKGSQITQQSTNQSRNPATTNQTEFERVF
Chain of CDK9/cyclin T1(h) (human) (O60563 whole entry, chain 2 of 2, further chain): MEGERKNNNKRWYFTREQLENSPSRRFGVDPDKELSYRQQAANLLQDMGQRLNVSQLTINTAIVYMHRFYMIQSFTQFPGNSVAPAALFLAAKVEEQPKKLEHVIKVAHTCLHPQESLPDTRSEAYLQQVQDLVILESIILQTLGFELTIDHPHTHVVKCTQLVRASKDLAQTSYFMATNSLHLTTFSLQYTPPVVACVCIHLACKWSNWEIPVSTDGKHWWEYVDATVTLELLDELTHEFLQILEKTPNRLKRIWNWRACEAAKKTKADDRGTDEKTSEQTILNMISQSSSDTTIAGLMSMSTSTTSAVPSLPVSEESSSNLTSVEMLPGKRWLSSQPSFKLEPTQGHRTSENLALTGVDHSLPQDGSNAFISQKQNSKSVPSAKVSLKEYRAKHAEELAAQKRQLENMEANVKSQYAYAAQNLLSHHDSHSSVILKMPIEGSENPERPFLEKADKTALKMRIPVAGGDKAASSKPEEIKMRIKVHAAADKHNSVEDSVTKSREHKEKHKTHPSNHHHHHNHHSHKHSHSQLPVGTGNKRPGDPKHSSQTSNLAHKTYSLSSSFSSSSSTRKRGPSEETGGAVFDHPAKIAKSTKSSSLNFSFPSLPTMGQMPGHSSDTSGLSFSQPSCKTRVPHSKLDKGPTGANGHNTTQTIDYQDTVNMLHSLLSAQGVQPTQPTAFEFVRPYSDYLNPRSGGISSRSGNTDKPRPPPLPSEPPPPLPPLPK

Which results are given for MMI-0100 (peptide)?
% activity [1]: 97%; % activity [2]: 111%; % activity [3]: 95%; % activity [4]: 76%; % activity [5]: 105%; % activity [6]: 181%; % activity [7]: 228%; % activity [8]: 97%; % activity [9]: 106%; % activity [10]: 82%; % activity [11]: 52%; % activity [12]: 89%; % activity [13]: 124%; % activity [14]: 108%; % activity [15]: 106%; % activity [16]: 95%; % activity [17]: 95%; % activity [18]: 106%; % activity [19]: 108%; % activity [20]: 79%; % activity [21]: 99%; % activity [22]: 96%; % activity [23]: 99%; % activity [24]: 127%; % activity [25]: 121%; % activity [26]: 354%; % activity [27]: 89%; % activity [28]: 113%; % activity [29]: 99%; % activity [30]: 97%; % activity [31]: 100%; % activity [32]: 94%; % activity [33]: 144%; % activity [34]: 87%; % activity [35]: 112%; % activity [36]: 94%; % activity [37]: 77%; % activity [38]: 92%; % activity [39]: 114%; % activity [40]: 95%; % activity [41]: 109%; % activity [42]: 118%; % activity [43]: 58%; % activity [44]: 37%; % activity [45]: 112%; % activity [46]: 106%; % activity [47]: 110%; % activity [48]: 114%; % activity [49]: 102%; % activity [50]: 67%; % activity [51]: 28%; % activity [52]: 92%; % activity [53]: 100%; % activity [54]: 102%; % activity [55]: 41%; % activity [56]: 114%

For MMI-0200 (peptide), which % activity [1] is on record?
The % activity was 101%.

And the % activity [2]?
The % activity was 124%.

What about the % activity [3] of the same substance?
Its % activity is 75%.

And the % activity [4]?
Its % activity is 120%.

What about the % activity [5] of the same substance?
Its % activity is 105%.

What about the % activity [6] of the same substance?
Its % activity is 133%.

What about the % activity [7] of the same substance?
Its % activity is 103%.

And the % activity [8]?
Its % activity is 115%.

What about the % activity [9] of the same substance?
Its % activity is 90%.

What about the % activity [10] of the same substance?
The % activity was 98%.

And the % activity [11]?
Its % activity is 50%.

What about the % activity [12] of the same substance?
Its % activity is 131%.

What about the % activity [13] of the same substance?
The % activity was 152%.

What about the % activity [14] of the same substance?
Its % activity is 96%.

And the % activity [15]?
Its % activity is 113%.

And the % activity [16]?
The % activity was 94%.

What about the % activity [17] of the same substance?
Its % activity is 58%.

What about the % activity [18] of the same substance?
The % activity was 97%.

What about the % activity [19] of the same substance?
Its % activity is 76%.

What about the % activity [20] of the same substance?
The % activity was 73%.

What about the % activity [21] of the same substance?
The % activity was 98%.

What about the % activity [22] of the same substance?
The % activity was 103%.

And the % activity [23]?
The % activity was 139%.

What about the % activity [24] of the same substance?
Its % activity is 71%.

And the % activity [25]?
Its % activity is 88%.

What about the % activity [26] of the same substance?
Its % activity is 107%.

And the % activity [27]?
The % activity was 67%.

What about the % activity [28] of the same substance?
The % activity was 102%.

What about the % activity [29] of the same substance?
Its % activity is 117%.

What about the % activity [30] of the same substance?
Its % activity is 115%.

And the % activity [31]?
The % activity was 110%.

And the % activity [32]?
The % activity was 101%.

And the % activity [33]?
The % activity was 143%.

What about the % activity [34] of the same substance?
Its % activity is 98%.

And the % activity [35]?
The % activity was 109%.

What about the % activity [36] of the same substance?
Its % activity is 166%.

And the % activity [37]?
Its % activity is 141%.

What about the % activity [38] of the same substance?
Its % activity is 98%.

And the % activity [39]?
The % activity was 109%.

What about the % activity [40] of the same substance?
The % activity was 83%.

What about the % activity [41] of the same substance?
The % activity was 128%.

And the % activity [42]?
Its % activity is 95%.

And the % activity [43]?
The % activity was 106%.

What about the % activity [44] of the same substance?
The % activity was 67%.

What about the % activity [45] of the same substance?
The % activity was 100%.

What about the % activity [46] of the same substance?
Its % activity is 98%.

And the % activity [47]?
Its % activity is 107%.

And the % activity [48]?
The % activity was 97%.

And the % activity [49]?
Its % activity is 98%.

And the % activity [50]?
The % activity was 75%.

What about the % activity [51] of the same substance?
Its % activity is 53%.

What about the % activity [52] of the same substance?
The % activity was 105%.

What about the % activity [53] of the same substance?
Its % activity is 110%.

And the % activity [54]?
The % activity was 101%.

And the % activity [55]?
Its % activity is 92%.

What about the % activity [56] of the same substance?
The % activity was 143%.

What does the source list for MMI-0500 (peptide)?
% activity [1]: 5%; % activity [2]: 93%; % activity [3]: 21%; % activity [4]: 26%; % activity [5]: 85%; % activity [6]: 337%; % activity [7]: 6%; % activity [8]: 19%; % activity [9]: 76%; % activity [10]: 7%; % activity [11]: 8%; % activity [12]: 49%; % activity [13]: 81%; % activity [14]: 174%; % activity [15]: 70%; % activity [16]: 8%; % activity [17]: -3%; % activity [18]: 24%; % activity [19]: 76%; % activity [20]: 10%; % activity [21]: 16%; % activity [22]: 5%; % activity [23]: 150%; % activity [24]: 25%; % activity [25]: 9%; % activity [26]: 78%; % activity [27]: 15%; % activity [28]: 40%; % activity [29]: 17%; % activity [30]: 65%; % activity [31]: 15%; % activity [32]: 6%; % activity [33]: 178%; % activity [34]: 10%; % activity [35]: 169%; % activity [36]: 5%; % activity [37]: 73%; % activity [38]: 30%; % activity [39]: 81%; % activity [40]: -1%; % activity [41]: 79%; % activity [42]: 12%; % activity [43]: 146%; % activity [44]: 7%; % activity [45]: 18%; % activity [46]: 16%; % activity [47]: 52%; % activity [48]: 66%; % activity [49]: 23%; % activity [50]: 3%; % activity [51]: 22%; % activity [52]: 36%; % activity [53]: 3%; % activity [54]: 62%; % activity [55]: 3%; % activity [56]: 239%

— patent US20160200782A1
